First the molecules themselves.
B3: Zebrafish (Danio rerio) RET extracellular domain (residues 22-626) (domain or fragment, UniProt A8E7C6 22-626, looked up)
chain: GLYFPQRLYTENIYVGQQQGSPLLQVISMREFPTERPYFFLCSHRDAFTSWFHIDEASGVLYLNKTLEWSDFSSLRSGSVRSPKDLTLKVGVSSTPPMKVMCTILPTVEVKLSFINDTAPSCGQVELSTLCFPEKISNPHITENREPGALRQLRRFTHMSICPNYTISYGVVAGSSVPFAVDDSTSELVVTAQVDREEKEVYHLDIVCMVRTERNLEEVFRSLHVNIYDEDDNSPYVNGTDTEDVLVEFDRSEGTVFGTLFVYDRDTTPVYPTNQVQNKLVGTLMTNDSWIKNNFAIEHKFREEKAIFGNVRGTVHEYKLKLSQNLSVTEQRSFLLGYLVNDTTFPGPEGTVLLHFNVTVLPVPIRFSNVTYSFTVSQKATTYSQIGKVCVENCQKFKGIDVTYQLEIVDRNITAEAQSCYWAVSLAQNPNDNTGVLYVNDTKVLRRPECQELEYVVIAQEQQNKLQAKTQLTVSFQGEADSLKTDEPRFPACAEKRQRGDCEATRGLGAPTGRCQWRQGRDKGISKRYSTCSPNLGTCPDGYCDAIESKNISICPQDCSSEAIIGGYERDLYGIKAGHGTCYCFEGKCFCERDEPEDDICNDMC
notes: RET, Danio rerio, UniProt A8E7C6, extracellular domain, residues 22-626; cloned from zRET-CS2-MT+; The protein is glycosylated; also called zRET^ecd; zRET; source: Hi5 insect cells, baculovirus, secreted

Series [1] concerns the target B3. Description: BLI; BLItz; His-tagged zGFRα1 (58 μM, 4 μl) immobilised on Ni-NTA tips; pre-mixed zRET^ecd and zGDNF at 0.3-44 μM; 20 mM HEPES pH 8, 150 mM NaCl, 1 mM CaCl2; plateau values fitted as Scatchard plots; triplicate. Conditions: both partners purified. Background: BLI is a label-free optical method that tracks binding on a fibre tip over time.
Series [2] deals with the molecule itself. Description: SDS-PAGE with and without DTT; purified zGDNF on a Coomassie-stained gel, with 1 mM DTT or without.
Series [3] concerns the molecule itself. Description: SEC + native gel or EMSA; affinity-purified zRET^ecd separated by SEC into two peaks; fractions and pools run on BN-PAGE and SDS-PAGE. In general terms: A gel shift assay detects complexes by their altered migration in electrophoresis.

The results in this text go back to article PMC5415192, “Zebrafish GDNF and its co-receptor GFRα1 activate the human RET receptor and promote the survival of dopaminergic neurons in vitro” (PLoS ONE, 2017).

B1: Complex of His-tagged zebrafish GFRα1 (residues 31-351) and zebrafish GDNF (complex, zebrafish (Danio rerio))
chain 1: DCVKANELCLKEPGCSSKYRTMRQCVAGRESNFSMATGMEAKDECRLVLDALKQSPLYNCRCKRGMKKEKNCLRIYWGIYQHLQGNDLLEDSPYEPVNSRLSDIFRLAPIYSGEPALAKENNCLNAAKACNLNDTCKKYRSAYISPCTSRVSTAEVCNKRKCHKALRQFFDKVPPKHSYGMLYCSCPLGDQSACSERRRQTIVPACSYEDKERPNCLTLQVSCKTNYICRSRLADFFTNCQPEPLSLSGCLKENYADCLLSYSGLIGTVMTPNYLRSPKISVSPFCDCSSSGNSKEECDRFTEFFTDNACLRNAIQAFGNG
chain 2: SSDVEPQMKRDRVRQKAAANTEKSGGRGRGERKRSRGRARSRDDRVKGQGRGCLLKEIHLNVTDLDLGYRTKEELIFRYCSGPCHDAETNYDKILNNLTHNKKLDKDTPSRTCCRPIAFDDDISFLDDSLEYHTLKKHSAKKCACV
notes: GDNF family receptor alpha-1, Danio rerio, UniProt Q98TT9, residues 31-351, lacking the GPI-anchor; Glial cell line-derived neurotrophic factor, Danio rerio, UniProt Q98TU0, mature GDNF, residues 90-236; as m6; In the BLI experiment His-tagged zGFRα1 was held on the Ni-NTA tip, and zGDNF was supplied pre-mixed with zRET^ecd; The stoichiometry of the complex was not measured here; also called …
As for B1, the Kd in series [1] stood at 5.9 ± 1.5 µM.

B2: Zebrafish (Danio rerio) mature GDNF (residues 90-236) (ligand, UniProt Q98TU0 90-235, looked up)
chain: SSDVEPQMKRDRVRQKAAANTEKSGGRGRGERKRSRGRARSRDDRVKGQGRGCLLKEIHLNVTDLDLGYRTKEELIFRYCSGPCHDAETNYDKILNNLTHNKKLDKDTPSRTCCRPIAFDDDISFLDDSLEYHTLKKHSAKKCACV
notes: Glial cell line-derived neurotrophic factor, Danio rerio, UniProt Q98TU0, mature GDNF, residues 90-236; 'zGDNF' is the construct in the original pK503.9 vector (Flag-tag only); Whether its Flag tag was removed is not clear; It appears as a mixture of a DTT-sensitive dimer and monomer, and it is glycosylated; also called zGDNF; zebrafish GDNF; source: Hi5 insect cells, baculovirus, secreted; …
Regarding B2, the “stoichiometry N” value in series [2] was found to be 2.
For B3, in series [3], the “stoichiometry N” value stood at 2.

Usually Kd stands for the equilibrium constant for the complex coming apart. The low end stands for tighter binding, the high end for weaker binding. One may read the stoichiometry N as a count of units in the complex or per binding partner.
